The data set “SEC-MALS” deals with the molecule itself. Put plainly: SEC-MALS.
Data set [1] addresses T1, Nup88^517-742 (tags removed, from the co-purified complexes) (rat, UniProt O08658 517-742).
T1 sequence: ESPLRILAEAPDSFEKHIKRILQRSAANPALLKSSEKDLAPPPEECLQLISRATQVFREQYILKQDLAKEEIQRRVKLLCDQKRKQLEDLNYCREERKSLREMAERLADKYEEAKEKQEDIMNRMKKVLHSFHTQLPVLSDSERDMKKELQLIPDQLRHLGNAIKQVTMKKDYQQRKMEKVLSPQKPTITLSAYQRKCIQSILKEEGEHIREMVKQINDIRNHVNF
Nature of the data set: SEC-MALS + other: densitometry of SDS-PAGE bands.

B1: His6-tagged Nup88^517-742 (domain or fragment)
chain: ESPLRILAEAPDSFEKHIKRILQRSAANPALLKSSEKDLAPPPEECLQLISRATQVFREQYILKQDLAKEEIQRRVKLLCDQKRKQLEDLNYCREERKSLREMAERLADKYEEAKEKQEDIMNRMKKVLHSFHTQLPVLSDSERDMKKELQLIPDQLRHLGNAIKQVTMKKDYQQRKMEKVLSPQKPTITLSAYQRKCIQSILKEEGEHIREMVKQINDIRNHVNF
Turning to B1, the “stoichiometry N” value in the data set “SEC-MALS” came out at 2.

B2: Nup62^322-525 (tags removed, from the co-purified complexes) (domain or fragment)
chain: AVGTTTGPAMTYAQLESLINKWSLELEDQERHFLQQATQVNAWDRTLIENGEKITSLHREVEKVKLDQKRLDQELDFILSQQKELEDLLSPLEESVKEQSGTIYLQHADEEREKTYKLAENIDAQLKRMAQDLKDIIEHLNMAGGPADTSDPLQQICKILNAHMDSLQWVDQSSALLQRRVEEASRVCESRRKEQERSLRIAFD
Consider B2, for which the “stoichiometry N” value in data set [1] was found to be 2 Nup62 per Nup88.

For the origin of these results see article PMC9727814 (Molecular Biology of the Cell, 2022).
